Results reported in patent US20070015228A1 (Genentech, published 2007).

B1: anti-idiotypic antibody 8A3 (antibody, V domains shown)
VH: QVQLQQSGAELAKPGASVKMSCKASGYNFTTYWMHWVKQRPGQGLEWIGYINPSTDYTEYNQKFKYKATLTADKSSSTAYIQLSSLTSEDSAVYYCARWWDYDWYFDVWGAGTPLTVSS
VL: DIVMTQSQEFMSTSVGDRVSVTCKASQTVDTNVAWYQQKLGQSPKPLIYSASYRCSGVPDRFTGSGSRTDFTLTITNVQSEDLAEYFCQQYHSFPWTFGGGTKVEIKR
notes: Murine monoclonal antibody raised against 2H7.v16; It was biotinylated when used as detection antibody and unlabeled when coated; also called MAb 8A3; 8A3-bio
B2: humanized 2H7 variant v511 (antibody, human IgG1, kappa, V domains shown)
VH: EVQLVESGGGLVQPGGSLRLSCAASGYTFTSYNMHWVRQAPGKGLEWVGAIYPGNGATSYNQKFKGRFTISVDKSKNTLYLQMNSLRAEDTAVYYCARVVYYSYRYWYFDVWGQGTLVTVSS
VL: DIQMTQSPSSLSASVGDRVTITCRASSSVSYLHWYQQKPGKAPKPLIYAPSNLASGVPSRFSGSGSGTDFTLTISSLQPEDFATYYCQQWAFNPPTFGQGTKVEIKR
notes: also called 2H7.v511
B3: humanized anti-CD20 antibody 2H7.v16 (antibody, human IgG1, kappa)
heavy: not shown
light: DIQMTQSPSSLSASVGDRVTITCRASSSVSYMHWYQQKPGKAPKPLIYAPSNLASGVPSRFSGSGSGTDFTLTISSLQPEDFATYYCQQWSFNPPTFGQGTKVEIKRTVAAPSVFIFPPSDEQLKSGTASVVCLLNNFYPREAKVQWKVDNALQSGNSQESVTEQDSKDSTYSLSSTLTLSKADYEKHKVYACEVTHQGLSSPVTKSFNRGEC
notes: Human IgG1, expressed in 293 cells; also called humanized anti-CD20 IgG; humanized 2H7

How the values were obtained:
[1] = biological target: B2; test: sandwich ELISA, 8C5 coat, biotinylated 8A3 detection, mouse serum
[2] = biological target: B3; test: ELISA, 8A3 coated on plate, anti-human IgG Fc-HRP detection
[3] = biological target: T1, humanized anti-CD20 antibody 2H7.v31; test: as above
T1 construct: The L chain is the same as for 2H7.v16

[4] = biological target: B1; test: sandwich ELISA in mouse serum, 8C5 coat + 2H7 + 8A3-bio; the signal needs binding to both 8C5 and 8A3
[5] = biological target: B1; test: ELISA, plate coated with 8A3, serially diluted antibody, detection with goat anti-human IgG Fc-HRP

Binder: B1
binding result [1]: binds | binding result [2]: binds | binding result [3]: binds

Binder: B2
binding result [4]: binds

Binder: B3
binding result [5]: binds
